Assay results from patent US20190367620A1 (Merck KGaA, published 2019).

Key:
[1] = biological target: T1, FGFR1 D2 point mutant Y98A (human, UniProt P11362 22-254); assay: SPR as in Example 1.8
T1 chain: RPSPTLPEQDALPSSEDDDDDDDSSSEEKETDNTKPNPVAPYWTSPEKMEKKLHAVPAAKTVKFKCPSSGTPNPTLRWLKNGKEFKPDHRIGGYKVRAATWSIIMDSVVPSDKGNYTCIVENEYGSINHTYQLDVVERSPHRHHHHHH
In short: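 Anti-FGFR1 mAb captured via immobilised anti-human Fc to ~200 RU; 2-fold dilutions of His-tagged FGFR1 (wild-type or HEK-expressed point mutants, Ala→Gly for native Ala) injected at 25° C in HBS-EP+. kon/koff from 1:1 Langmuir fit; KD = koff/kon.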

[2] = biological target: T2, FGFR1 D2 point mutant K51A (human, UniProt P11362 22-254); assay: SPR; free energy change relative to wild-type D2
T2 chain: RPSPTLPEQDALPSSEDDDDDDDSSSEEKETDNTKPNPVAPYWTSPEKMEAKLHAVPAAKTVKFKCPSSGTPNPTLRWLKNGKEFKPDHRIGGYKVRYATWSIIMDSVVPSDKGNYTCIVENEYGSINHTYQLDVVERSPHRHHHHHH
Protocol: (§1) Binding affinities of anti-FGFR1 antibodies to FGFR1 were measured by Surface Plasmon Resonance (SPR) using a GE Healthcare BIAcore 4000 instrument as follows. Goat anti-human Fc antibody (Jackson ImmunoResearch Laboratories #109-005-098) was first immobilized on BIAcore carboxymethylated dextran CM5 chip using direct coupling to free amino groups following the procedure described by the manufacturer. Antibodies were then captured on the CM5 biosensor chip to achieve approximately 200 response units (RU). Binding measurements were performed using the running HBS-EP+ buffer. A 2-fold dilution series of His-tagged FGFR1 proteins were injected at a flow rate of 30 μl/min at 25° C. Association rates (kₒₙ, per mol/s) and dissociation rates (koff, per s) were calculated using a simple 1:1 Langmuir binding model (Biacore 4000 Evaluation Software). The equilibrium dissociation constant (KD, mol) was calculated as the ratio of koff/kₒₙ.
(§2) To obtain a finer, residue-level mapping of the epitope and to complement the HD exchange data, molecular modelling and manual inspection of the crystal structure of FGFR1 [(Beenken et al. 2012); PDB record 3OJV] was used to select solvent exposed residues within and around the epitope identified by HD exchange. The selected residues were mutated either to alanine (large to small) or to glycine if the selected residue was alanine. In total 35 point mutants were designed, expressed and purified in HEK cells, and tested for binding to mAb #A08 using surface plasmon resonance as described in Example 1.8. The affinity of the antibody for wild-type and each mutant was determined and used to calculate the contribution of each epitope residue to the binding energy.
(§3) Variant were compared to wild-type D2. The change in the Gibbs free energy of binding of mutant relative to the wild-type D2 construct (ΔΔGₘᵤₜ) was derived from the ratio of the wild-type and mutant KD.

[3] = biological target: T3, FGFR1 D2 point mutant P87A (human, UniProt P11362 22-254); assay: SPR; free energy change relative to wild-type D2
T3 chain: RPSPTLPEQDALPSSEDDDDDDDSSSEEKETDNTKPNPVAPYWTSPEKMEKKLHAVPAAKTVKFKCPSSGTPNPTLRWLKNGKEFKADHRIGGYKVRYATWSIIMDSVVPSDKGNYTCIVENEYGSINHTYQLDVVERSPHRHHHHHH
Protocol: as §1, §2, §3

[4] = biological target: T4, FGFR1 D2 point mutant G92A (human, UniProt P11362 22-254); assay: SPR; free energy change relative to wild-type D2
T4 chain: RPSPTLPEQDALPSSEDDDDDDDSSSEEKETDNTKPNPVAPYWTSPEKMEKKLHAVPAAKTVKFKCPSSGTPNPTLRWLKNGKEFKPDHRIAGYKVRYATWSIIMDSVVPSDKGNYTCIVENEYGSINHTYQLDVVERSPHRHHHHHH
Protocol: as §1, §2, §3

[5] = biological target: T5, FGFR1 D2 point mutant Y94A (human, UniProt P11362 22-254); assay: SPR; free energy change relative to wild-type D2
T5 construct: Uncharacteristic melting curve
T5 chain: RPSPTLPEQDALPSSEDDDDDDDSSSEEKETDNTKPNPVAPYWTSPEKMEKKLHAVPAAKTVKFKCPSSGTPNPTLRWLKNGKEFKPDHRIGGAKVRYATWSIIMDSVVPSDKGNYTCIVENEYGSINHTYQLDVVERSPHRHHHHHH
Protocol: as §1, §2, §3

[6] = biological target: T6, FGFR1 D2 point mutant R97A (human, UniProt P11362 22-254); assay: SPR; free energy change relative to wild-type D2
T6 chain: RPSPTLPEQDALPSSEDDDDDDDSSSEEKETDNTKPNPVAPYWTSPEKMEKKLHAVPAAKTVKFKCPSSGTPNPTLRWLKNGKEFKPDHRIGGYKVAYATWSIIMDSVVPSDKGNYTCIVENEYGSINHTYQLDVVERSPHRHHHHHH
Protocol: as §1, §2, §3

[7] = biological target: T1, FGFR1 D2 point mutant Y98A; assay: SPR; free energy change relative to wild-type D2
Protocol: as §1, §2, §3

[8] = biological target: T7, FGFR1 D2 point mutant T100A (human, UniProt P11362 22-254); assay: SPR; free energy change relative to wild-type D2
T7 chain: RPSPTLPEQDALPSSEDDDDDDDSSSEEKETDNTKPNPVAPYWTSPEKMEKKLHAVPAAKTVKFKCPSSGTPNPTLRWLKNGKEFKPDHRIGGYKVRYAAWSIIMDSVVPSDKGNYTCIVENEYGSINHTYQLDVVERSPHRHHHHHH
Protocol: as §1, §2, §3

[9] = biological target: T8, FGFR1 D2 point mutant I104A (human, UniProt P11362 22-254); assay: SPR; free energy change relative to wild-type D2
T8 chain: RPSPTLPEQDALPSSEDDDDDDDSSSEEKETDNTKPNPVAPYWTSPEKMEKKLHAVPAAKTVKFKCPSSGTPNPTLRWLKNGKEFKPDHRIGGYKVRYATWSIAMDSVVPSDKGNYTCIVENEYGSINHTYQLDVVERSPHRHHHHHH
Protocol: as §1, §2, §3

Human FGFR1 D2-His6 = biological target: T9, Human FGFR1 D2-His6 (human, UniProt P11362 22-254); assay: ELISA, antibody titrated on FGFR1 Ig-D2, O.D. 450 nm [panel FGFR1 Ig-D2]
T9 construct: also called D2 domain; F3FR1c-D2
T9 sequence: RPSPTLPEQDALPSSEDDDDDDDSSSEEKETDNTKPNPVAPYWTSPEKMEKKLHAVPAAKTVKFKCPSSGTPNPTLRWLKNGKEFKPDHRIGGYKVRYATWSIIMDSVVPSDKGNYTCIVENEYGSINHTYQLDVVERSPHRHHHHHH

Kd [1]: 0.18 nM
ΔΔGmut [2]: 0.27 kcal/mol
ΔΔGmut [3]: 0.08 kcal/mol
ΔΔGmut [4]: 0.21 kcal/mol
ΔΔGmut [5]: 0.96 kcal/mol
ΔΔGmut [6]: 1.83 kcal/mol
ΔΔGmut [7]: -0.04 kcal/mol
ΔΔGmut [8]: 0.12 kcal/mol
ΔΔGmut [9]: 0.93 kcal/mol
EC50 (read off the curve) (Human FGFR1 D2-His6): ~0.04 nM
B1: mAb #A08 (antibody, V domains shown)
VH: EVQLQESGPGLVKPSGTLSLTCAVSGGSISSNNWWSWVRQPPGKGLEWIGEIYHSGSTSYNPSLKSRVTISVDKSKNQFSLKLNSVTAADTAVYYCARGTDWFDPWGQGTLVTVSS
VL: QAVLTQPPSVSVAPGQTARITCGGNNIGSESVHWYQQKPGQAPVLVVYDDSDRPSGIPERFSGSNSGNTATLTISRVEAGDEADYYCQVWDSTSDHRVFGGGTKLTVL
notes: Only variable domains are tied to the name mAb #A08 (hit); also called #A08 hit; mAb #08
